Assay results from article PMC5963807, “Assembly-hub function of ER-localized SNARE proteins in biogenesis of tombusvirus replication compartment” (PLoS Pathogens, 2018).

T1: FLAG/His6-p33 (Tomato bushy stunt virus, UniProt P15962 1-296)
T1 construct: p33 replication protein of Tomato bushy stunt virus (TBSV); also called FLAG-p33; FLAG-tagged p33; source: yeast, co-expressed, detergent-solubilized membrane fraction; not shown: FLAG, N-terminal, kept; His6, N-terminal, kept
T1 sequence: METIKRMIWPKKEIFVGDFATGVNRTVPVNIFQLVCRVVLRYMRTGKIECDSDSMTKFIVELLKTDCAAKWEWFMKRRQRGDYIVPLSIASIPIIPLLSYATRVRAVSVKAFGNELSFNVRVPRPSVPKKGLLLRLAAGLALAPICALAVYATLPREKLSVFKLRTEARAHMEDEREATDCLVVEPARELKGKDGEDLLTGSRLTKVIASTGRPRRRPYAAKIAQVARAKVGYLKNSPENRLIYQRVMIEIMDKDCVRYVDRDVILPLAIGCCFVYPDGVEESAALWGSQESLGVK

B1: His6-Osh6p (natural protein, yeast (S. cerevisiae), UniProt Q02201 1-448, looked up)
chain: MGSKKLTVGSDSHRLSKSSFSSNKSSHSATKDQPIDTDDIDEDDESGHNIILNIISQLRPGCDLTRITLPTFILEKKSMLERVTNQLQFPEFLLQAHSEKDPLKRFLYVMKWYLAGWHIAPKAVKKPLNPVLGEYFTAYWDLPNKQQAYYISEQTSHHPPECAYFYMIPESSIRVDGVVIPKSRFLGNSSAAMMDGSTVLQFLDIKDGNGKPEKYVLTQPNVYVRGILFGKMRIELGDHMIIKSPNFQADIEFKTKGYVFGTYDAIEGTVKDYDGNAYYEISGKWNDVMYLKDLKQPRSSPKVFLDTHKESPLRPKVRPLSEQGEYESRKLWKKVTDALAVRNHPVATEEKFQIEDHQRQLAKKRIEDGVEFHPKLFRRSKPGEDLDYCIYKNIPVDEDPEKQIRSILQIAPILPGQQFTDKFFIPAFEKIKSQKKMIENEKQNPAKQ
notes: also called 6xHis-tagged Osh6; Osh6 ORP (OSBP1-like); source: yeast, co-expressed, detergent-solubilized membrane fraction; not shown: His6, N-terminal, kept
B2: Tdh2p (GAPDH) (enzyme, yeast (S. cerevisiae), UniProt P00358 1-332, looked up)
chain: MVRVAINGFGRIGRLVMRIALQRKNVEVVALNDPFISNDYSAYMFKYDSTHGRYAGEVSHDDKHIIVDGHKIATFQERDPANLPWASLNIDIAIDSTGVFKELDTAQKHIDAGAKKVVITAPSSTAPMFVMGVNEEKYTSDLKIVSNASCTTNCLAPLAKVINDAFGIEEGLMTTVHSMTATQKTVDGPSHKDWRGGRTASGNIIPSSTGAAKAVGKVLPELQGKLTGMAFRVPTVDVSVVDLTVKLNKETTYDEIKKVVKAAAEGKLKGVLGYTEDAVVSSDFLGDSNSSIFDAAAGIQLSPKFVKLVSWYDNEYGYSTRVVDLVEHVAKA
notes: Tdh2p glyceraldehyde-3-phosphate dehydrogenase of yeast; also called Tdh2 GAPDH; source: yeast, detergent-solubilized membrane fraction
B3: Pbp2 RNA binding protein (natural protein, UniProt P38151 1-413, looked up)
chain: MSTETTKPSITTTPTTVLVSPNTLKRKKGEDTSEEQLEAEIKRVALKDADSHSDNDHDSPDNVPSDVHLRMLCLVKHASLIVGHKGATISRIKSETSARINISNNIRGVPERIVYVRGTCDDVAKAYGMIVRALLEEHGNEDNGEDIEISINLLIPHHLMGCIIGKRGSRLREIEDLSAAKLFASPNQLLLSNDRILTINGVPDAIHIATFYISQTLLNFQMESPQKNVKRSIYYQPTQFNSVLIDHSQPNTIFHQRNHQYHPSDKLLSYKPNKNLPISSTLLSMATPQYTTASVANATAFQPNFVIPNVTVLDGPVISPAPGNHLLMNFVQQEIFIDEKFVGNVIGKDGKHINSVKESTGCSIIIQDPVEGSSERRLTIRGTFMASQAAIMLISNKIEIDRSNAERKRRSPL
notes: source: yeast, detergent-solubilized membrane fraction
B4: Pex19p shuttle protein (natural protein, yeast (S. cerevisiae), UniProt Q07418 1-342, looked up)
chain: MNENEYDNFDDLDDLLDEDPTKLDEAEPDDVQAKGSVYNDSENKEKNAESKDSDGVQVANESEEDPELKEMMVDLQNEFANLMKNNGNENNVKTEDFNKLISALEEAAKVPHQQMEQGCSSLKSNSTDKGTVNGSNPGFKNIVSNTLDRLKENGNKVDTSLAEETKESQRSGQNNNIDDILSQLLDQMVASGGKESAENQFDLKDGEMDDAITKILDQMTSKEVLYEPMKEMRSEFGVWFQENGENEEHKEKIGTYKRQFNIVDEIVNIYELKDYDELKHKDRVTELLDELEQLGDSPIRSANSPLKHGNEEEELMKMLEIDGNDPNLGNLDKELTDGCKQQ
notes: Pex19p peroxisome membrane-biogenesis protein of yeast; source: yeast, detergent-solubilized membrane fraction
B5: Vps4p AAA+ ATPase (enzyme, yeast (S. cerevisiae), UniProt P52917 1-437, looked up)
chain: MSTGDFLTKGIELVQKAIDLDTATQYEEAYTAYYNGLDYLMLALKYEKNPKSKDLIRAKFTEYLNRAEQLKKHLESEEANAAKKSPSAGSGSNGGNKKISQEEGEDNGGEDNKKLRGALSSAILSEKPNVKWEDVAGLEGAKEALKEAVILPVKFPHLFKGNRKPTSGILLYGPPGTGKSYLAKAVATEANSTFFSVSSSDLVSKWMGESEKLVKQLFAMARENKPSIIFIDEVDALTGTRGEGESEASRRIKTELLVQMNGVGNDSQGVLVLGATNIPWQLDSAIRRRFERRIYIPLPDLAARTTMFEINVGDTPCVLTKEDYRTLGAMTEGYSGSDIAVVVKDALMQPIRKIQSATHFKDVSTEDDETRKLTPCSPGDDGAIEMSWTDIEADELKEPDLTIKDFLKAIKSTRPTVNEDDLLKQEQFTRDFGQEGN
notes: Vps4p AAA+ ATPase (an ESCRT protein) of yeast; also called Vps4 AAA ATPase; source: yeast, detergent-solubilized membrane fraction
B6: Tef1 eEF1A translation elongation factor (natural protein, yeast (S. cerevisiae), UniProt P02994 1-458, looked up)
chain: MGKEKSHINVVVIGHVDSGKSTTTGHLIYKCGGIDKRTIEKFEKEAAELGKGSFKYAWVLDKLKAERERGITIDIALWKFETPKYQVTVIDAPGHRDFIKNMITGTSQADCAILIIAGGVGEFEAGISKDGQTREHALLAFTLGVRQLIVAVNKMDSVKWDESRFQEIVKETSNFIKKVGYNPKTVPFVPISGWNGDNMIEATTNAPWYKGWEKETKAGVVKGKTLLEAIDAIEQPSRPTDKPLRLPLQDVYKIGGIGTVPVGRVETGVIKPGMVVTFAPAGVTTEVKSVEMHHEQLEQGVPGDNVGFNVKNVSVKEIRRGNVCGDAKNDPPKGCASFNATVIVLNHPGQISAGYSPVLDCHTAHIACRFDELLEKNDRRSGKKLEDHPKFLKSGDAALVKFVPSKPMCVEAFSEYPPLGRFAVRDMRQTVAVGVIKSVDKTEKAAKVTKAAQKAAKK
notes: Tef1 eEF1A translation elongation factor of yeast; source: yeast, detergent-solubilized membrane fraction
B7: Vps23p ESCRT factor (natural protein, yeast (S. cerevisiae), UniProt P25604 1-385, looked up)
chain: MSANGKISVPEAVVNWLFKVIQPIYNDGRTTFHDSLALLDNFHSLRPRTRVFTHSDGTPQLLLSIYGTISTGEDGSSPHSIPVIMWVPSMYPVKPPFISINLENFDMNTISSSLPIQEYIDSNGWIALPILHCWDPAAMNLIMVVQELMSLLHEPPQDQAPSLPPKPNTQLQQEQNTPPLPPKPKSPHLKPPLPPPPPPQPASNALDLMDMDNTDISPTNHHEMLQNLQTVVNELYREDVDYVADKILTRQTVMQESIARFHEIIAIDKNHLRAVEQAIEQTMHSLNAQIDVLTANRAKVQQFSSTSHVDDEDVNSIAVAKTDGLNQLYNLVAQDYALTDTIECLSRMLHRGTIPLDTFVKQGRELARQQFLVRWHIQRITSPLS
notes: Vps23p ESCRT-I factor of yeast; also called Vps23 ESCRT I; source: yeast, detergent-solubilized membrane fraction
B8: Rpn11 deubiquitinase (enzyme, yeast (S. cerevisiae), UniProt P43588 1-306, looked up)
chain: MERLQRLMMNSKVGSADTGRDDTKETVYISSIALLKMLKHGRAGVPMEVMGLMLGEFVDDYTVNVVDVFAMPQSGTGVSVEAVDDVFQAKMMDMLKQTGRDQMVVGWYHSHPGFGCWLSSVDVNTQKSFEQLNSRAVAVVVDPIQSVKGKVVIDAFRLIDTGALINNLEPRQTTSNTGLLNKANIQALIHGLNRHYYSLNIDYHKTAKETKMLMNLHKEQWQSGLKMYDYEEKEESNLAATKSMVKIAEQYSKRIEEEKELTEEELKTRYVGRQDPKKHLSETADETLENNIVSVLTAGVNSVAIK
notes: Rpn11 deubiquitinase, co-opted cellular host factor in yeast; source: yeast, detergent-solubilized membrane fraction
B9: eIF4AIII-like RH2 DEAD-box helicase (enzyme, UniProt Q94A52 1-408, looked up)
chain: MATANPGRGGGRRGGGAMDDDKLVFETTDGIEPITSFNDMGIKEDVLRGVYEYGFEKPSAIQQRAVMPILQGRDVIAQAQSGTGKTSMIALSVCQVVDTSSREVQALILSPTRELATQTEKTIQAIGLHANIQAHACIGGNSVGEDIRKLEHGVHVVSGTPGRVCDMIKRRSLRTRAIKLLILDESDEMLSRGFKDQIYDVYRYLPPDLQVCLVSATLPHEILEMTSKFMTEPVKILVKRDELTLEGIKQFFVAVEKEEWKFDTLCDLYDTLTITQAVIFCNTKRKVDYLSEKMRSHNFTVSSMHGDMPQKERDAIMNEFRSGDSRVLITTDVWARGIDVQQVSLVINYDLPNNRELYIHRIGRSGRFGRKGVAINFVKSDDIKILRDIEQYYSTQIDEMPMNVADLI
notes: eIF4AIII-like RH2 DEAD-box helicase; source: yeast, detergent-solubilized membrane fraction
B10: Cdc34 E2 enzyme (enzyme, yeast (S. cerevisiae), UniProt P14682 1-295, looked up)
chain: MSSRKSTASSLLLRQYRELTDPKKAIPSFHIELEDDSNIFTWNIGVMVLNEDSIYHGGFFKAQMRFPEDFPFSPPQFRFTPAIYHPNVYRDGRLCISILHQSGDPMTDEPDAETWSPVQTVESVLISIVSLLEDPNINSPANVDAAVDYRKNPEQYKQRVKMEVERSKQDIPKGFIMPTSESAYISQSKLDEPESNKDMADNFWYDSDLDDDENGSVILQDDDYDDGNNHIPFEDDDVYNYNDNDDDDERIEFEDDDDDDDDSIDNDSVMDRKQPHKAEDESEDVEDVERVSKKI
notes: Cdc34 ubiquitin-conjugating enzyme of yeast; also called Cdc34 ubiquitin-conjugating enzyme; source: yeast, detergent-solubilized membrane fraction
B11: His6-VAP27-1 (natural protein, UniProt Q8VZ95 1-256, looked up)
chain: MSNIDLIGMSNRDLIGMSNSELLTVEPLDLQFPFELKKQISCSLYLTNKTDNNVAFKVKTTNPKKYCVRPNTGVVLPRSTCEVLVTMQAQKEAPSDMQCKDKFLLQGVIASPGVTAKEVTPEMFSKEAGHRVEETKLRVTYVAPPRPPSPVHEGSEEGSSPRASVSDNGHGSEFSFERFIVDNKAGHQENTSEARALITKLTEEKQSAIQLNNRLQRELDQLRRESKKSQSGGIPFMYVLLVGLIGLILGYIMKRT
notes: VAP27-1, plant ortholog of the yeast Scs2 VAP protein; also called 6xHis-tagged VAP27-1 (Scs2 ortholog); Vap27-1 (Scs2-like); source: yeast, co-expressed, detergent-solubilized membrane fraction; not shown: His6, N-terminal, kept

target: T1, FLAG/His6-p33; assay: co-IP; FLAG-p33 purified from detergent-solubilized membrane fractions of wt yeast and of yeast co-expressing Ufe1ΔTM; co-purified cellular proteins measured by Western blotting; amount from WT yeast taken as 100%; conditions: partners not purified

| Binder | fold reduction of the co-purified amount in yeast expressing Ufe1ΔTM against wt yeast |
| --- | --- |
| B1 | ~3 fold |

target: T1, FLAG/His6-p33; assay: as above; conditions: partners not purified; remark: another data set of the same source

| Binder | percentage of host protein co-purified with p33 from yeast expressing Ufe1ΔTM (WT yeast = 100%) |
| --- | --- |
| B1 | 59 ± 24% |
| B2 | 64 ± 17% |
| B3 | 122 ± 15% |
| B4 | 56 ± 13% |
| B5 | 44 ± 27% |
| B6 | 67 ± 25% |
| B7 | 106 ± 7% |
| B8 | 103 ± 6% |
| B9 | 70 ± 18% |
| B10 | 109 ± 14% |
| B11 | 68 ± 30% |

target: T1, FLAG/His6-p33; assay: co-IP; viral replicase purified by FLAG affinity from detergent-solubilized membrane fractions of yeasts expressing FLAG-p33, FLAG-p92 and the repRNA; WT yeast or yeast depleted of Ufe1p (GALS::UFE1) or Use1p (GAL1::USE1) on glucose; Western blot with anti-6xHis; conditions: partners not purified

| Binder | fold reduction of the co-purified amount in Ufe1p- or Use1p-depleted yeast against WT yeast |
| --- | --- |
| B1 | ~7 fold |
| B11 | ~5 fold |
